Assay results from patent US20170097333A1 (Merck Sharp & Dohme, published 2017).

T1: human LAG3 (human, UniProt P18627 23-525)
T1 construct: Expressed from a transgene on Jurkat cells
T1 sequence: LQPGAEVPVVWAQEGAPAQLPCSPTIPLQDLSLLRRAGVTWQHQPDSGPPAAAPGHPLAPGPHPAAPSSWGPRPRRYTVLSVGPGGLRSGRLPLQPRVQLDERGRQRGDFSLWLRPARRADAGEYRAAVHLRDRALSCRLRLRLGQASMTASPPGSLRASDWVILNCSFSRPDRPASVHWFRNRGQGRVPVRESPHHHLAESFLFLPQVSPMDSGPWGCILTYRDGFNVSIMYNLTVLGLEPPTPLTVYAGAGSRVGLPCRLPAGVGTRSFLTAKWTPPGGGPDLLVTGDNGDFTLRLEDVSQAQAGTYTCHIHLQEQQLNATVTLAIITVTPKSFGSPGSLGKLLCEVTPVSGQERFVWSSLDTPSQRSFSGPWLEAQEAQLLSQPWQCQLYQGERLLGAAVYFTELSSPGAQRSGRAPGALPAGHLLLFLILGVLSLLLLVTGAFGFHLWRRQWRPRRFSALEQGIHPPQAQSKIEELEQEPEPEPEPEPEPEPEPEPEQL


Columns and labels:
human CD3 (human) [1] = molecular target: human CD3 (human) (UniProt P07766); test: FACS staining of Jurkat clone E6, relative to control antibody mIgG1 pacblue
Sequence of human CD3 (human) (P07766 23-207): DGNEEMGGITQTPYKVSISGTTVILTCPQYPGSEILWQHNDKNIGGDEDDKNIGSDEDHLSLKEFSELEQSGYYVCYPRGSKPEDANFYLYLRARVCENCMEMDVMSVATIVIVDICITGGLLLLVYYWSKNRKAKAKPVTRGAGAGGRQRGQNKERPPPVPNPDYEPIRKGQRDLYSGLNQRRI

human CD3 (human) [2] = molecular target: human CD3 (human) (UniProt P07766); test: FACS staining of Jurkat clone G10 (passage P6), relative to control antibody mIgG1-pacblue
human CD3 (human) [3] = molecular target: human CD3 (human) (UniProt P07766); test: FACS staining of Jurkat clone F11, relative to control antibody mIgG1 pacblue
human CD3 (human) [4] = molecular target: human CD3 (human) (UniProt P07766); test: FACS staining of Jurkat clone F5, relative to control antibody mIgG1 pacblue
human CD3 (human) [5] = molecular target: human CD3 (human) (UniProt P07766); test: FACS staining of Jurkat clone G10 (passage ~P3), relative to control antibody mIgG1-pacblue
human CD3 (human) [6] = molecular target: human CD3 (human) (UniProt P07766); test: FACS staining of Jurkat clone H3, relative to control antibody mIgG1 pacblue
human CD3 (human) [7] = molecular target: human CD3 (human) (UniProt P07766); test: FACS staining of Jurkat clone G10 (passage P17), relative to control antibody mIgG1-pacblue
human CD3 (human) [8] = molecular target: human CD3 (human) (UniProt P07766); test: FACS staining of Jurkat clone D7, relative to control antibody mIgG1 pacblue
human CD3 (human) [9] = molecular target: human CD3 (human) (UniProt P07766); test: FACS staining of Jurkat clone G3, relative to control antibody mIgG1 pacblue
human CD3 (human) [10] = molecular target: human CD3 (human) (UniProt P07766); test: FACS staining of Jurkat clone G10, relative to control antibody mIgG1 pacblue
human CD3 (human) [11] = molecular target: human CD3 (human) (UniProt P07766); test: FACS staining of Jurkat clone G10 (passage P4), relative to control antibody mIgG1-pacblue
human CD3 (human) [12] = molecular target: human CD3 (human) (UniProt P07766); test: FACS staining of Jurkat clone A1, relative to control antibody mIgG1 pacblue
human CD3 (human) [13] = molecular target: human CD3 (human) (UniProt P07766); test: FACS staining of Jurkat clone G10 (passage P14), relative to control antibody mIgG1-pacblue
human CD3 (human) [14] = molecular target: human CD3 (human) (UniProt P07766); test: FACS staining of Jurkat clone G10 (passage P12), relative to control antibody mIgG1-pacblue
human LAG3 [15] = molecular target: T1, human LAG3; test: FACS staining of human LAG3 Jurkat clone G10 (passage P12), relative to control antibody Herceptin-DyLight 650
human LAG3 [16] = molecular target: T1, human LAG3; test: FACS staining of human LAG3 Jurkat clone G10 (passage P4), relative to control antibody Herceptin-DyLight 650
human LAG3 [17] = molecular target: T1, human LAG3; test: FACS staining of human LAG3 Jurkat clone G10 (passage P14), relative to control antibody Herceptin-DyLight 650
human LAG3 [18] = molecular target: T1, human LAG3; test: FACS staining of human LAG3 Jurkat clone G10 (passage P6), relative to control antibody Herceptin-DyLight 650
human LAG3 [19] = molecular target: T1, human LAG3; test: FACS staining of human LAG3 Jurkat clone G10 (passage P17), relative to control antibody Herceptin-DyLight 650
human LAG3 [20] = molecular target: T1, human LAG3; test: FACS staining of human LAG3 Jurkat clone G10 (passage ~P3), relative to control antibody Herceptin-DyLight 650

| Molecule | CD3 expression (Fold Change) (human CD3 (human) [1]) [fold] | CD3 expression (Fold Change) (human CD3 (human) [2]) [fold] | CD3 expression (Fold Change) (human CD3 (human) [3]) [fold] | CD3 expression (Fold Change) (human CD3 (human) [4]) [fold] | CD3 expression (Fold Change) (human CD3 (human) [5]) [fold] | CD3 expression (Fold Change) (human CD3 (human) [6]) [fold] | CD3 expression (Fold Change) (human CD3 (human) [7]) [fold] | CD3 expression (Fold Change) (human CD3 (human) [8]) [fold] | CD3 expression (Fold Change) (human CD3 (human) [9]) [fold] | CD3 expression (Fold Change) (human CD3 (human) [10]) [fold] | CD3 expression (Fold Change) (human CD3 (human) [11]) [fold] | CD3 expression (Fold Change) (human CD3 (human) [12]) [fold] | CD3 expression (Fold Change) (human CD3 (human) [13]) [fold] | CD3 expression (Fold Change) (human CD3 (human) [14]) [fold] | Lag3 Expression (Fold Change) (human LAG3 [15]) [fold] | Lag3 Expression (Fold Change) (human LAG3 [16]) [fold] | Lag3 Expression (Fold Change) (human LAG3 [17]) [fold] | Lag3 Expression (Fold Change) (human LAG3 [18]) [fold] | Lag3 Expression (Fold Change) (human LAG3 [19]) [fold] | Lag3 Expression (Fold Change) (human LAG3 [20]) [fold] |
| --- | --- | --- | --- | --- | --- | --- | --- | --- | --- | --- | --- | --- | --- | --- | --- | --- | --- | --- | --- | --- |
| maHuCD3 pacblue (mouse anti-human CD3E antibody Clone SP34-2) | 8.5 | 8 | 3.9 | 7.5 | 10.9 | 5 | 4.7 | 3.4 | 5.3 | 8.4 | 7.2 | 3.5 | 6.9 | 6.4 | – | – | – | – | – | – |
| Ab6: humanized anti-human LAG3 VH6 N55D/VL3, IgG4 S228P/Kappa (antibody, V domains shown, also called 51AHH; light chain 45AGX) VH: QMQLVQSGPEVKKPGTSVKVSCKASGYTFTDYNVDWVRQARGQRLEWIGDINPNDGGTIYAQKFQERVTITVDKSTSTAYMELSSLRSEDTAVYYCARNYRWFGAMDHWGQGTTVTVSS VL: DIVMTQTPLSLSVTPGQPASISCKASQSLDYEGDSDMNWYLQKPGQPPQLLIYGASNLESGVPDRFSGSGSGTDFTLKISRVEAEDVGVYYCQQSTEDPRTFGGGTKVEIKR | – | – | – | – | – | – | – | – | – | – | – | – | – | – | 7.3 | 5.6 | 7.2 | 2 | 7.3 | 6.1 |
